Experimental data as given in US20080125354A1 (FLORIDA ATLANTIC UNIVERSITY, published 2008).

B1: phosphinate-containing triple-helical peptide-amphiphile f3, C6-(Gly-Pro-Hyp)5-Gly-Pro-Pro-[Gly~Val]-Val-Gly-Glu-Gln-(Gly-Pro-Hyp)5-NH2 (peptide)
peptide: not shown
modifications: N-terminal hexanoic acid (C6); Hyp (4-hydroxyproline) at 3, 6, 9, 12, 15, 27, 30, 33, 36, 39 (written P in letters); Gly19-Val20 peptide bond replaced by phosphinate psi{PO2H-CH2}; hypothesised phosphino Gly-(D)Val analog; C-terminal amide
B2: phosphinate-containing triple-helical peptide-amphiphile f4, C6-(Gly-Pro-Hyp)5-Gly-Pro-Pro-[Gly~Val]-Val-Gly-Glu-Gln-(Gly-Pro-Hyp)5-NH2 (peptide)
peptide: not shown
modifications: N-terminal hexanoic acid (C6); Hyp (4-hydroxyproline) at 3, 6, 9, 12, 15, 27, 30, 33, 36, 39 (written P in letters); Gly19-Val20 peptide bond replaced by phosphinate psi{PO2H-CH2}; hypothesised phosphino Gly-(L)Val analog; C-terminal amide
notes: One of two RP-HPLC-separated diastereomers of the C6-lipidated peptide; Triple helix of three identical strands by self-assembly; also called Peptide-amphiphile 2; peptide-amphiphile mimic

Experiments:
[1] = biological target: MMP-13 (collagenase 3) (UniProt P45452 20-471, limits assumed); assay: cell-based or functional assay
[2] = biological target: MMP-8 (neutrophil collagenase, collagenase 2) (UniProt P22894 21-467, limits assumed); assay: cell-based or functional assay
Chain of MMP-8 (neutrophil collagenase, collagenase 2) (P22894 21-467 limits assumed): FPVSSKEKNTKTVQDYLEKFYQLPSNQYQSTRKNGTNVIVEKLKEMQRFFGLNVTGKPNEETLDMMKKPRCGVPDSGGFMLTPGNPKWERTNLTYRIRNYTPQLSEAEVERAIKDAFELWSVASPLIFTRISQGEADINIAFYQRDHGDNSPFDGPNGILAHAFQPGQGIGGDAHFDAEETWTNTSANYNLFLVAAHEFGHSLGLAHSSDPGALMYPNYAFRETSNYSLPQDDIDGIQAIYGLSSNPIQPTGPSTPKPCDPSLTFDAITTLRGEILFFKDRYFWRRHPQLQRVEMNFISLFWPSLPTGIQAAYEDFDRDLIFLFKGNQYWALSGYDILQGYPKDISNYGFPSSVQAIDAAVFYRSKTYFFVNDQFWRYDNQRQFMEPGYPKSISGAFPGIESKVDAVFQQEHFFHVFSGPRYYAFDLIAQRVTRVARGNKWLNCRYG

Binder | IC50, inhibition of enzyme activity (fluorogenic substrate) [1] | IC50, inhibition of enzyme activity (fluorogenic substrate) [2]
B1 | ~10 µM | ~50 µM
B2 | ~10 µM | ~50 µM
